Data reported in the supplement of paper PMC12764529.
± gives the half width of the 95% confidence interval.

Columns and labels:
[1] = folding stability dG unfold from chymotrypsin proteolysis; higher = more stable
How it was run: (§1)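 Designed mini-proteins (under 80 residues, no cysteine) in a PA-tagged cDNA display construct were digested with trypsin and chymotrypsin. Each protease was used at 11 concentrations (threefold dilutions) plus a no-protease condition, followed by sequencing. K50 was inferred by Bayesian fitting of sequencing counts, and unfolding free energy was derived against a sequence-predicted unfolded-state K50 and a shared folded-state K50, per protease or combined. Only designs with AlphaFold2 dimer inter-PAE above 15 were kept.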

[2] = folding stability dG unfold from trypsin proteolysis; higher = more stable
How it was run: as §1

[3] = folding stability dG unfold (combined trypsin and chymotrypsin); higher = more stable
How it was run: as §1

Sequence | folding stability dG unfold [1] | folding stability dG unfold [2] | folding stability dG unfold [3]
SAHTISIRIPPNMKPITAEELKKEPGYEVKDINVYPNEDGNMYFTIEVEPGMPPKKMDEILERIRDRMGSAG [r14_421_TrROS] | 0.911 ± 0.038 kcal/mol | 0.764 ± 0.034 kcal/mol | 0.862 ± 0.059 kcal/mol
SAGGSAGGSAKKVIKAKILEVKVLPDGTGLVKLEGEDGLEVVIPLSILENISPDAIVTIEASAGGSAGGSAG [r3_315_TrMRF] | 1.79 ± 0.039 kcal/mol | 0.916 ± 0.055 kcal/mol | 1.45 ± 0.066 kcal/mol
SAGGSAGGSAGNKPVTVRFTIKIPLPNGKKLEIPVEVTYDSPEDRDRAEKEAEEIAREFLSAGGSAGGSAGG [r17_510_TrROS] | 1.11 ± 0.098 kcal/mol | 1.5 ± 0.057 kcal/mol | 1.36 ± 0.097 kcal/mol
SAGGSAGGSAGGDESYRKLLEELPLPVTEIVVETVPLPETDEPITVVTPKNPDGKEVTLGSAGGSAGGSAGG [r7_337_JUSTAS] | -0.557 ± 0.084 kcal/mol | -0.0426 ± 0.037 kcal/mol | -0.284 ± 0.14 kcal/mol
SAGGSAGEIEGEEAAKLVEDALRALDPNVRVEYEPLPGEKPLLLVRVYRVDPESGAETPLATLLIGSAGGSA [r15_682_TrMRF] | 2.69 ± 0.066 kcal/mol | 1.78 ± 0.05 kcal/mol | 2.4 ± 0.077 kcal/mol
SAGGSAGGMKLLKVVVERKDGSKRELEIPEELLVELGRPPTPEEIAKLLGIKPEDIVRVEIEDVSAGGSAGG [r6_166_TrMRF] | 4.87 ± 0.21 kcal/mol | 3.65 ± 0.15 kcal/mol | 4.74 ± 0.2 kcal/mol
SAGGSAKKKIKIKVKNKDGSVYELEFDEENGIVKITYKDGKKEELSVEELKKLPLPKNITEVEIVPSAGGSA [r15_1043_TrROS_Hall] | 2.59 ± 0.036 kcal/mol | 1.57 ± 0.043 kcal/mol | 2.25 ± 0.059 kcal/mol
SAGGSAGGSAGGSDVKIEVERGPNGYYTVTIELNGKPKIIPFPPGRPPEDAKDEIKDLLSAGGSAGGSAGGS [r4_7_TrROS] | -0.279 ± 0.13 kcal/mol | 0.554 ± 0.058 kcal/mol | 0.335 ± 0.12 kcal/mol
SAMEVIELEFPSVEELEAALKEKFNVEVEKLPDGTKRIKVEVDGELVLIEITDDKVRIRIISKEELEKLSAG [r14_402_TrROS_Hall] | 1.53 ± 0.041 kcal/mol | 3.05 ± 0.095 kcal/mol | 2.42 ± 0.13 kcal/mol
SAGGSAGGSKTVYRITIYNEKTGKKLVIEIEESMSEEEKEQKIKDLLKKLLPPGAKIKIEKVPSAGGSAGGS [r20_213_TrROS_Hall] | 4.44 ± 0.2 kcal/mol | 3.34 ± 0.44 kcal/mol | 4.08 ± 0.25 kcal/mol
SAGEVELTEDGSLKITETIEVNGLLFKVTVTIDENGNISVSIEKVEVLPPPPPVEIKLEDEEAKKKALKSAG [r5_715_TrROS_Hall] | 1.61 ± 0.14 kcal/mol | 0.26 ± 0.28 kcal/mol | 1.16 ± 0.69 kcal/mol
MKYTLTLTDPTTPTTSTLTVPNDPEKALALLREAKAANPNLTATLTGVTSEEIVEAAKKAGLKDIKPKTAAS [r1_114_JUSTAS] | 0.301 ± 0.27 kcal/mol | 0.15 ± 0.13 kcal/mol | 0.316 ± 0.27 kcal/mol
SAGGSAGGSGPVLLVRVRPDGTREILDVLPPDEPVENLPAGEFREFRLIPTESLEDALRKALASAGGSAGGS [r12_452_TrMRF] | 0.304 ± 0.37 kcal/mol | -0.44 ± 0.54 kcal/mol | -0.00342 ± 0.21 kcal/mol
SAGMMKIKITLENGEELTIEVSPEEKEKLKEGDIVEIRLEDGTVFKAEVVEVRPPGETVKIRITEAVPSAGG [r19_274_TrROS_Hall] | 2.9 ± 0.035 kcal/mol | 1.67 ± 0.086 kcal/mol | 2.54 ± 0.16 kcal/mol
SAGGSAGGSAGGQTIVIDSRLLRTALENGDLEKLKALVEEAGYNPENAKIYLITPEELKESAGGSAGGSAGG [r7_3_TrMRF] | 0.741 ± 0.11 kcal/mol | -0.133 ± 0.1 kcal/mol | 0.464 ± 0.055 kcal/mol
SAEVRVEIVEVDEERGVIRIEITVPEDLPEEEILEELARRLEELARERGYEVRIERREDGTYRIEIRFPSAG [r14_865_TrROS_Hall] | 4.26 ± 0.071 kcal/mol | 4.18 ± 0.16 kcal/mol | 4.25 ± 0.11 kcal/mol
SAGELKPGQIVVRTIEIDLPEEDEELREAIERGELIELELEDGSRVLMRVERKDGKLRITEVVILPRPESAG [r5_223_TrROS_Hall] | 3.16 ± 0.029 kcal/mol | 1.66 ± 0.043 kcal/mol | 2.73 ± 0.062 kcal/mol
SNPISAVVPSPGGRYVLVVEYKDGSVEVYEFEGLSTAEEAKERALALLKESTEGEPREITRVVVLPAPPGSA [r9_1135_TrMRF] | 4.3 ± 0.051 kcal/mol | 4.3 ± 0.17 kcal/mol | 4.33 ± 0.11 kcal/mol
SAGGMPIILLEEKKLPNGEPVYRITLLERDPNDGSWRPIEEDELKTKEEAEERAKAIAEKRGVELLKSAGGS [r16_512_JUSTAS] | 1.34 ± 0.036 kcal/mol | 1.57 ± 0.026 kcal/mol | 1.43 ± 0.053 kcal/mol
SAGGSAGGGKVKVELEPLEDDSYRLRITVELPDGSKIEKPVILPSNVPPELSAEKVAEEILKKESAGGSAGG [r6_895_TrMRF] | -0.117 ± 0.34 kcal/mol | 0.378 ± 0.089 kcal/mol | 0.228 ± 0.24 kcal/mol
SAMVSPEEAAKLIAEKIREEHPDPNIVVPVKVEYDPETNTTTITVTVKYPDDPSTETFTYTLAPDDVLKSAG [r14_849_JUSTAS] | 2.19 ± 0.11 kcal/mol | 1.53 ± 0.044 kcal/mol | 1.9 ± 0.082 kcal/mol
